In US8962263B2, “Methods and compositions for detecting the activation state of multiple proteins in single cells” (The Board of Trustees of the Leland Stanford Junior …, priority 2001, dated 2015):
Read-outs that look alike come from different tables or passages of the source.

Tests used:
p44/42 MAPK [1] = assay: intracellular phospho-p44/42 MAPK by flow cytometry in ICAM-2 treated Jurkat cells; assay type: cell-based, human; details: chemical agents 10 μM, EDTA 1 mM; mAbs titrated prior to ICAM-2
From the text: A) Mean fluorescent intensity values (MFI) of ICAM-2-FITC (adhesion) and mAb24-Alexa633, (LFA-1, activation) in treated Jurkat cells (as above). Control unstimulated and/or compound pretreated values were subtracted. B) Top panel: Intracellular phospho-p44/42, MAPK detection as a function of ICAM-2, dose in Jurkat cells by flow cytometry (see Material and Methods). Mean fluorescent intensity values (MFI) were plotted±standard deviation (SD). Bottom panel: ICAM-2, treated Jurkat cells were stained for intracellular phospho-p44/42, MAPK as described above. mAbs to β2, and αL, integrins (10, μg/ml, 10, minutes) were titrated prior to ICAM-2, treatment as indicated and plotted for MFI±SD. C) ICAM-2, induced p44/42, MAPK activity is blocked by β2, and αL, integrin antibodies as determined by a p44/42 MAPK kinase assay. Conditions for induction and inhibition are as described above. Recombinant active p44/42, MAPK served as an internal positive control (denoted by “+”). D) Inhibition and activation profile for intracellular phospho-p44/42, by flow cytometry in the presences of chemical agents (10, μM), EDTA (1, mM), or PMA, ionomycin and ICAM-2, stimulus (as indicated above). MFI values±SD are plotted.
Intracellular and extracellular staining was performed as described (Perez and Nolan, 2002). Intracellular probes for active kinases were made by conjugating phospho-specific antibodies to the ALEXA FLUOR® dye series as described and used in phospho-protein optimized conditions (Perez and Nolan, 2002). Kinetic analyses was performed by direct application of fixation buffer in time synchronized 96-wells maintained at 37° C. Intracellular actin and microtubule staining was performed using phalloidin-Alexa633 and taxol-Alexa546 dyes (Molecular Probes). Adhesion and clustering assays were performed using ICAM-2-FITC as described in text. LFA-1 activation was assessed by either mAb24-Alexa633 or mAb24-Alexa546 conjugate, surface stained at 37° C. Flow cytometry data are representative of 3 independent experiments of 10^6 cells/sample. 10-50,000 events were collected and manually calibrated on a FACSCalibur™ machine. Data plotted in bar graph format is expressed as geometric mean fluorescence intensity (MFI) and normalized for isotype controls. Log ratios are defined as the MFI of stimulus to the MFI of unstimulated cells. Data was analyzed using Flowjo™ software (Treestar).

p44/42 MAPK [2] = assay: phospho-p44/42 MAPK immunoblot and p44/42 MAPK kinase assay in soluble ICAM-2 treated Jurkat cells; assay type: cell-based, human
human naïve T-cells = assay: T cell activation by CD25 and CD69 markers in human naïve T cells; assay type: cell-based; details: combined with CD3/CD28 stimulation
Description: A) Intracellular detection of IL-2, of titration of CD3/CD28, vs. LFA-1, stimulus or CD3, vs. CD28, stimulus for 6, hours. Median Fluorescent intensity is plotted as a visual array. B) Bivariate analysis of CD69, and CD25 expression in unstimulated, CD3/CD28/LFA-1, (0.001, μg/ml, 1:1:1) stimulated, and CD3/CD28, (10 μg/ml) stimulated CD4, T cells. C) Bivariate plot of CD69, expression and intracellular detection of IL-2, post 12, hour stimulation of unstimulated, CD3/CD28, and CD3/CD28/LFA-1, stimulation.
Intracellular and extracellular staining was performed as described for phospho-staining (Perez and Nolan, 2002). […] Four or less color flow cytometry data acquisition was collected on a FACSCalibur machine (Beckton Dickinson, San Jose Calif.) using CELLQuest software, analyzed and presented using FlowJo software (Tree Star, San Carlos, California). […] Data were collected by FACS-Desk software and compensated, analyzed, and presented using FlowJo software. […] Ratios of intracellular flow cytometric measurements were calculated from the following equation where MFI equals mean fluorescent intensity: Log [(MFIexperimental−MFIisotype mAb)/(MFIcontrol−MFlisotype mAb)].

Row | Molecule | effect on ICAM-2 induced p44/42 MAPK phosphorylation (p44/42 MAPK [1]) | p44/42 MAPK phosphorylation and activity on ICAM-2 treatment (p44/42 MAPK [2]) | p44/42 MAPK phosphorylation and activity on ICAM-2 treatment (p44/42 MAPK [2]; listed as soluble ICAM-2) | lowering of the CD3/CD28 stimulus threshold (human naïve T-cells)
1 | CN(C)CCCn1cc(C2=C(c3c[nH]c4ccccc34)C(=O)NC2=O)c2ccccc21 [bisindolymaleimide I] | diminished |  |  | 
2 | ICAM-2: biochemically purified soluble human ICAM-2 protein from retrovirally transduced NIH3T3 cells; ICAM-2-FC fusion also used (protein, UniProt P13598 25-223, looked up, extracellular domain, biochemically purified soluble human ICAM-2 protein from retrovirally transduced NIH3T3 cells; ICAM-2-FC fusion also used) extracellular domain: KVFEVHVRPKKLAVEPKGSLEVNCSTTCNQPEVGGLETSLDKILLDEQAQWKHYLVSNISHDTVLQCHFTCSGKQESMNSNVSVYQPPRQVILTLQPTLVAVGKSFTIECRVPTVEPLDSLTLFLFRGNETLHYETFGKAAPAPQEATATFNSTADREDGHRNFSCLAVLDLMSRGGNIFHKHSAPKMLEIYEPVSDSQ |  | induced both p44/42 MAPK phosphorylation and activation | induced p44/42, MAPK phosphorylation and activity | 10,000 fold
